The values that follow come from article PMC3333885 (Nucleic Acids Research, 2011).

Positions count from the first letter of the chain named.

Data set [1] deals with T1, EcoP15I Res strongest DNA-binding region (array peptides) (UniProt Q5ZND2 637-670).
T1 chain: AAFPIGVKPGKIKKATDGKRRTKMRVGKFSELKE
As to the kind of experiment: peptide array.

The target in data set [2] is T2, EcoP15I Res peptide 126-145 (spot B6) (UniProt Q5ZND2 126-145).
T2 chain: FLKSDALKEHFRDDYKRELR
In words: peptide array.

In data set [3] the target is T3, EcoP15I Res peptide 531-550 (spot F7) (UniProt Q5ZND2 531-550).
T3 chain: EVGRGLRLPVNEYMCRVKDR
In words: peptide array.

The data set “AUC” concerns the molecule itself. In words: AUC.
Data set [4] concerns the target T4, EcoP15I Res subunit (earlier preparations from pACYC177, no affinity tag) (UniProt Q5ZND2 1-970).
T4 sequence (looked up): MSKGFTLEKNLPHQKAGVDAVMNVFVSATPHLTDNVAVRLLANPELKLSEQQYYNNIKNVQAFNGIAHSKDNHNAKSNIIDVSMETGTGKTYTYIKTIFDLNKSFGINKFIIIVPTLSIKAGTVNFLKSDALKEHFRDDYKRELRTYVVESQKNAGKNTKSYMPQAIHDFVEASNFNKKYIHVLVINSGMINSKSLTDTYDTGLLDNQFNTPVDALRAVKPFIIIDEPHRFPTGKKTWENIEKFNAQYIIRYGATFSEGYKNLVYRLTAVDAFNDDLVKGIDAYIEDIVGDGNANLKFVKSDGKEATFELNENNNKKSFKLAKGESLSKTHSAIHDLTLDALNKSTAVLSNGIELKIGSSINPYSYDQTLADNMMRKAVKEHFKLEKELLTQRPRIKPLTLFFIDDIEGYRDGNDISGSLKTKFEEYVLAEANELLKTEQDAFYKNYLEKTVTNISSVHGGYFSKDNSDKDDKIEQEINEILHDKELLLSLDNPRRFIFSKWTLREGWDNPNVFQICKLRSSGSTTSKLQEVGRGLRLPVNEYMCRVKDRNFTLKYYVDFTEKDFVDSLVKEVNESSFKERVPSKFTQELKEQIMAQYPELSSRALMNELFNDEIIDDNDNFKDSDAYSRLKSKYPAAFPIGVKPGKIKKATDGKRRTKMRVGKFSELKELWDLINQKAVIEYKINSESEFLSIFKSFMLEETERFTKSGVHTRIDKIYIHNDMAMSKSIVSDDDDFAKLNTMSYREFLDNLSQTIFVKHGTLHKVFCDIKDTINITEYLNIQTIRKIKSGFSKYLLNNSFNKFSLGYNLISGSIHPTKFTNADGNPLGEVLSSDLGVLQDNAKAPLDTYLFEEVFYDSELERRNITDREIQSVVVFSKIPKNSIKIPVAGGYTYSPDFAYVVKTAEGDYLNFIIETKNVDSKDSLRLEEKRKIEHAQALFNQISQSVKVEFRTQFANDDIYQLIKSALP
In words: densitometry of SDS-PAGE of the purified enzyme.

The target of data set [5] is T5, EcoP15I Res subunit, C-terminally His6-tagged (from pQEP15) (UniProt Q5ZND2 1-970).
T5 sequence (looked up): T4 sequence (looked up)
As to the kind of experiment: second-derivative UV absorption spectroscopy.

In data set [6] the target is T5, EcoP15I Res subunit, C-terminally …. In words: SEC. On the technique in general: In gel filtration, larger molecules generally elute earlier.
The target of data set [7] is EcoP15I Mod subunit;EcoP15I Res subunit (Escherichia coli?;Escherichia coli?, UniProt P12364;Q5ZND2 1-644;1-970, |). As to the kind of experiment: EMSA.
The target of data set [8] is T6, EcoP15I Mod subunit;EcoP15I Res translocase (Tr) domain (Escherichia coli?;Escherichia coli?, UniProt P12364;Q5ZND2 1-644;1-705, |).
T6 sequence 1: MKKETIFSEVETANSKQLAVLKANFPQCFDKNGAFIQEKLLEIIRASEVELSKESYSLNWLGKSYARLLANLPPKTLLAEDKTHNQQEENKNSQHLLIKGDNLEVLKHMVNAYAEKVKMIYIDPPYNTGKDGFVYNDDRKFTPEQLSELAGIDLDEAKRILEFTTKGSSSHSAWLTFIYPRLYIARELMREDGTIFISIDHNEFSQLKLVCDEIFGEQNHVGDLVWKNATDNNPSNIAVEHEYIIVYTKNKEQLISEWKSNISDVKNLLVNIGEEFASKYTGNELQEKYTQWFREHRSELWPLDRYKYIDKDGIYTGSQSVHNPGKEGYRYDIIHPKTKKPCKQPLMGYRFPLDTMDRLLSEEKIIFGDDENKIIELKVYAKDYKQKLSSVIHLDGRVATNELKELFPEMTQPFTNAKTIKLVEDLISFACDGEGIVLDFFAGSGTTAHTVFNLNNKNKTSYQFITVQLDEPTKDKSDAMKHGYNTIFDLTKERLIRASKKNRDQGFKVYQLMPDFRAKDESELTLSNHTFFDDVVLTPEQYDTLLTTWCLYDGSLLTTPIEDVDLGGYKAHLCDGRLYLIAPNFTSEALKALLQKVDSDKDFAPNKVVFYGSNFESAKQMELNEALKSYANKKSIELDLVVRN
T6 sequence 2: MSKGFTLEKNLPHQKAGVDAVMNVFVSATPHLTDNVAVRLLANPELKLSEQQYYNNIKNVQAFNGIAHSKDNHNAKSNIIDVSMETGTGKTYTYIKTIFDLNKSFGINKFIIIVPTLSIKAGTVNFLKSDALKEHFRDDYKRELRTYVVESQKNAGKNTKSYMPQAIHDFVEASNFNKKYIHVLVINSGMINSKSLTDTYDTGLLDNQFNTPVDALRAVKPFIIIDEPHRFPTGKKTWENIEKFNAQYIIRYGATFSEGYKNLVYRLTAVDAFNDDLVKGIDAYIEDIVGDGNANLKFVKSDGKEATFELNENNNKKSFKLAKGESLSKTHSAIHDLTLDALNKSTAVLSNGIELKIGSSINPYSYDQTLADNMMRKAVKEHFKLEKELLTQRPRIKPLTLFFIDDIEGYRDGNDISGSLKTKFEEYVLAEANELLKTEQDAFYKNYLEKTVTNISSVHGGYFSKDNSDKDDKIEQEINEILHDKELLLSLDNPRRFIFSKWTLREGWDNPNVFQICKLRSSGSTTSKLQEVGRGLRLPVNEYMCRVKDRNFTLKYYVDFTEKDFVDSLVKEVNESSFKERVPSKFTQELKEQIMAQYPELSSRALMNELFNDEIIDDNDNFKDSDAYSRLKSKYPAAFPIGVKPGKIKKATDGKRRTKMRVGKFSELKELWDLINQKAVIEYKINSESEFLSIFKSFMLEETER
In words: EMSA. On the technique in general: Mobility shift assays separate free from complexed probe on a gel.

Data set [9] concerns the target T7, EcoP15I Res translocase (Tr) domain (UniProt Q5ZND2 1-705).
T7 sequence: T6 sequence 2
As to the kind of experiment: EMSA.

B1: KW30-1/KW30-1c, specific dsDNA (dsDNA)
DNA 1: CGTAATCGTACCCAGCAGATATCGGTACCG
DNA 2: CGGTACCGATATCTGCTGGGTACGATTACG
As to B1, the results for the binding result in [1], in data set [2] and in [3] were “binds”, “no binding” and “no binding”, respectively.

B2: EcoP15I MTase (Mod subunit, C-terminally His-tagged) (enzyme, UniProt P12364 1-644, looked up)
chain: T6 sequence 1
On to B2, for which the “stoichiometry N” value in “AUC” amounted to 2.

B3: EcoP15I Mod subunit (earlier preparations from pACYC177, no affinity tag) (natural protein, UniProt P12364 1-644, looked up)
chain: T6 sequence 1
B3: in data set [4], the “stoichiometry N” value was 1.8 ± 0.15 Mod:Res.

B4: EcoP15I Mod subunit (untagged, from pQEP15) (natural protein, UniProt P12364 1-644, looked up)
chain: T6 sequence 1
B4: in data set [5], the “stoichiometry N” value was 2 Mod:Res. Also, in data set [6], the “Mod:Res ratio in SEC peak 1” value is ~1 Mod:Res and the “stoichiometry N” value was 1.8 Mod:Res.

B5: SR60-1/SR60-1c, dsDNA one site (dsDNA)
DNA 1: GGTCGACGAACCGTAATCGTACCCAGCAGATATCGGTACCGTTCGGTAATATTCCGACGG
DNA 2: CCGTCGGAATATTACCGAACGGTACCGATATCTGCTGGGTACGATTACGGTTCGTCGACC
On to B5, for which the values for the Kd in [7], in [8] and in data set [9] were 16 nM, 121 nM and 128 nM, respectively.

B6: SR60-0/SR60-0c, dsDNA no site (dsDNA)
DNA 1: B5 DNA 1 with C24G, G26A, A28C
DNA 2: B5 DNA 2 with T33G, C35T, G37C
Consider B6, for which the dissociation constant Kd in data set [7] was found to be 37 nM; in [8], 160 nM; in data set [9], 93 nM.

B7: SR60-1, ssDNA (ssDNA)
DNA: B5 DNA 1
For the molecule B7, the equilibrium dissociation constant (Kd) is 267 nM in [7], 346 nM in data set [8] and 268 nM in data set [9].

For orientation: stoichiometry N means the number of molecules, sites or subunits per partner or assembly. A word on the Kd: it is the free concentration of one partner at which half of the binding sites on the other are occupied at equilibrium, for simple one-to-one binding. A lower Kd goes with tighter binding.
